Assay results as given in PMC2367712 (Nucleic Acids Research, 2008).

Target: the molecule itself
Test: cross-linking

B1: Lsr2 of M. tuberculosis, recombinant, His-tagged at the C-terminal (natural protein)
chain: not shown
- stoichiometry N: 2
